According to paper doi:10.1101/2021.06.03.446896:

Molecular target: Cy5-labelled 46w60 mononucleosome (histone octamer on DNA)
Assay: MST

Kd: 41 nM
fold change of Kd with 2 uM (CA)20 RNA against no RNA: < 2 fold
fold reduction of affinity with 2 uM (GA)20 RNA against no RNA: 20 fold
Substance: human CHD4 (from UniProt Q14839 1-1912) (enzyme)
